Assay results as given in patent US20120065136A1 (UNIVERSITY OF ROCHESTER, published 2012).
Positions count from the first letter of the chain named. Each block holds one binder with its values, some of them ahead of it.

Columns and labels:
[1] = target: T1, A3C1C2 subunit of factor VIII (human, UniProt P00451 1709-2351); assay: cell-based or functional assay
T1 sequence: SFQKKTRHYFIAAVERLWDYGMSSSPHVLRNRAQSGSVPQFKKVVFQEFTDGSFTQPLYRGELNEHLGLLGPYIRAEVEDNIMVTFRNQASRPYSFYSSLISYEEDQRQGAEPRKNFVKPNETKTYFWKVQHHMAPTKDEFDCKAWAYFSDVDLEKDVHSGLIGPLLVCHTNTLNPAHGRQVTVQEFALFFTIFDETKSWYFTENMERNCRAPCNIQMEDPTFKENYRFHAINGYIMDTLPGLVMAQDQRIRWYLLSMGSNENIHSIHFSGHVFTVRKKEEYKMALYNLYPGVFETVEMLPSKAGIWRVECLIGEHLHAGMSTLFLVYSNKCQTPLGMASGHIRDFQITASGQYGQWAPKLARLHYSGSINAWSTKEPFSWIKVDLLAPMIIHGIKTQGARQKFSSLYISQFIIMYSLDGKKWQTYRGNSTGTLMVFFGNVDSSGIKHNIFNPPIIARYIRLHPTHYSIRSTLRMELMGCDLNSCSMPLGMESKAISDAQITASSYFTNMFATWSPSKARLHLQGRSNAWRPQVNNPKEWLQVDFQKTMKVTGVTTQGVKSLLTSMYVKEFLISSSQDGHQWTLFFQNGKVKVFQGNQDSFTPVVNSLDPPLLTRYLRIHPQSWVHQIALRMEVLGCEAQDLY

[2] = target: T1, A3C1C2 subunit of factor VIII; assay: fluorescence titration of acrylodan-labeled A1 (15 nM) with A3C1C2 (0-300 nM), pH 7.4, quadratic fit
Description: (§1) Purified A1 subunit from WT and Ala108Ile factor VIII was labeled with acrylodan by sulfhydryl specific protein modification as previously described (Wakabayashi et al., “Metal Ion-independent Association of Factor VIII Subunits and the Roles of Calcium and Copper Ions for Cofactor Activity and Inter-subunit Affinity,” Biochemistry 40:10293-10300 (2001), which is hereby incorporated by reference in its entirety). A1 (15 nM) from WT or Ala108Ile factor VIII was reconstituted with A3C1C2 subunit (0-300 nM) at 37° C. for 2 h in buffer B at pH 7.4. Fluorescence measurements were performed using an Aminco-Bowman Series 2 Luminescence Spectrometer (Thermo Spectronic, Rochester, N.Y.) at 23° C. at an excitation wavelength of 395 nm (2 nm bandwidth). Fluorescence emission was monitored at 480-490 nm (8 nm bandwidth) and all spectra were corrected for background. Data were fitted to a quadratic equation by non-linear least squares regression and parameter values were obtained.
(§2) To assess the affinity of the Ala108Ile A1 domain for C2 domain, the purified factor VIII variant and WT were treated with thrombin and the A1 subunits were separately purified as described supra. A1 subunits were then reacted with the environment-sensitive fluorescent probe, acrylodan, and these reagents were used to probe binding with the A3C1C2 subunit. […]

[3] = target: T1, A3C1C2 subunit of factor VIII; assay: fluorescence titration of acrylodan-labeled A1 with A3C1C2
Description: as §1, §2

[4] = target: T1, A3C1C2 subunit of factor VIII; assay: changes in fluorescence of acrylodan labeled-A1 subunits
Description: as §1, §2

fold reduction of decay rate against WT A1 [1]: 4.6 fold
B1: A1 subunit from Ala108Ile factor VIII (other)
chain: ATRRYYLGAVELSWDYMQSDLGELPVDARFPPRVPKSFPFNTSVVYKKTLFVEFTVHLFNIAKPRPPWMGLLGPTIQAEVYDTVVITLKNMASHPVSLHAVGVSYWKISEGAEYDDQTSQREKEDDKVFPGGSHTYVWQVLKENGPMASDPLCLTYSYLSHVDLVKDLNSGLIGALLVCREGSLAKEKTQTLHKFILLFAVFDEGKSWHSETKNSLMQDRDAASARAWPKMHTVNGYVNRSLPGLIGCHRKSVYWHVIGMGTTPEVHSIFLEGHTFLVRNHRQASLEISPITFLTAQTLLMDLGQFLLFCHISSHQHDGMEAYVKVDSCPEEPQLRMKNNEEAEDYDDDLTDSEMDVVRFDDDNSPSFIQIR

Kd [2]: 88.7 nM
B2: acrylodan-labeled A1 subunit from WT factor VIII (other)
chain: B1 chain with I108A
modifications: acrylodan on a free thiol, likely Cys310
notes: A1 subunit purified from thrombin-cleaved, EDTA-treated recombinant B-domainless WT factor VIII (BHK cells), then labelled with acrylodan; also called AcA1 (WT); WT A1 subunit

Kd [2]: 24.1 nM
fold increase in affinity against WT A1 [3]: ~4 fold
fold increase in binding affinity against WT [4]: ~3.7 fold
B3: acrylodan-labeled A1 subunit from Ala108Ile factor VIII (other)
chain: B1 chain
modifications: acrylodan on a free thiol, likely Cys310
notes: A1 subunit purified from thrombin-cleaved, EDTA-treated B-domainless Ala108Ile factor VIII, then labelled with acrylodan; also called AcA1 (Ala108Ile); Ala108Ile A1
